Assay results reported in US20250186620A1 (DUKE UNIVERSITY, published 2025).

T1: Cx35E224H (Morone americana Cx35 mutant E224H) (Morone americana)
T1 construct: Extracellular loop mutant of the screening library; not shown: C-terminal fluorescent protein fusion (mEmerald or RFP670 in FETCH)
T1 chain: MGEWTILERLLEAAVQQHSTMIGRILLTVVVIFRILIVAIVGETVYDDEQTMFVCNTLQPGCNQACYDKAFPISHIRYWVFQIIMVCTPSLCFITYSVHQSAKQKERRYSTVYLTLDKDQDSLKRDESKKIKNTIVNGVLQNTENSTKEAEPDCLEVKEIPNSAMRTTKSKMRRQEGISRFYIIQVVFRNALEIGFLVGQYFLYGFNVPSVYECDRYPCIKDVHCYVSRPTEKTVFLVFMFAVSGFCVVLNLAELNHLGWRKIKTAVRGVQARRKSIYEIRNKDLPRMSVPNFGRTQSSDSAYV

T2: Cx35E224K (Morone americana Cx35 mutant E224K) (Morone americana)
T2 construct: Extracellular loop mutant of the screening library; not shown: C-terminal fluorescent protein fusion (mEmerald or RFP670 in FETCH)
T2 chain: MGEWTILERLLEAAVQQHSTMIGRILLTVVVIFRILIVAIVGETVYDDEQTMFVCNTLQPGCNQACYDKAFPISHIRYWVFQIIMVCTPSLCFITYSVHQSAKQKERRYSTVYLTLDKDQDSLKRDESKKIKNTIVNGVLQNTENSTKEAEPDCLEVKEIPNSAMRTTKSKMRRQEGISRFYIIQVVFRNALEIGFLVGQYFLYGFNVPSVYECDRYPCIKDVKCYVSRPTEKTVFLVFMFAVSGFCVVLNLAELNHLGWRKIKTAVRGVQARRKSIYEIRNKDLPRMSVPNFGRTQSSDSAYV

T3: Cx35E224R (Morone americana Cx35 mutant E224R) (Morone americana)
T3 construct: Extracellular loop mutant of the screening library; not shown: C-terminal fluorescent protein fusion (mEmerald or RFP670 in FETCH)
T3 chain: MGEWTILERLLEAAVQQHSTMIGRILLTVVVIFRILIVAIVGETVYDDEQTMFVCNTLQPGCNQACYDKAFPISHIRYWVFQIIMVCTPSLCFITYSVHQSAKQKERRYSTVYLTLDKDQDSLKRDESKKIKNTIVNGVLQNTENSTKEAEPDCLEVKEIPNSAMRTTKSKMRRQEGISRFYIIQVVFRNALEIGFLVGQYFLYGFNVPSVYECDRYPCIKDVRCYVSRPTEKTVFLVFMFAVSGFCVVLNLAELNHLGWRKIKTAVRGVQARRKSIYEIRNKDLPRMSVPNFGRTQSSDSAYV

B1: human connexin36 (Cx36) (other, UniProt Q9UKL4 1-321, looked up)
chain: MGEWTILERLLEAAVQQHSTMIGRILLTVVVIFRILIVAIVGETVYDDEQTMFVCNTLQPGCNQACYDRAFPISHIRYWVFQIIMVCTPSLCFITYSVHQSAKQRERRYSTVFLALDRDPPESIGGPGGTGGGGSGGGKREDKKLQNAIVNGVLQNTENTSKETEPDCLEVKELTPHPSGLRTASKSKLRRQEGISRFYIIQVVFRNALEIGFLVGQYFLYGFSVPGLYECNRYPCIKEVECYVSRPTEKTVFLVFMFAVSGICVVLNLAELNHLGWRKIKLAVRGAQAKRKSIYEIRNKDLPRVSVPNFGRTQSSDSAYV
notes: whole, on cells; Hemichannel expressed in HEK 293FT cells for FETCH; also called GJD2; not shown: C-terminal fluorescent protein fusion (mEmerald or RFP670 in FETCH)

Experiments:
[1] = target: T4, human connexin45 (Cx45) (human, UniProt P36383 1-396); assay: FETCH (flow cytometry of co-plated HEK 293FT cells), benchmark pair
T4 construct: whole, on cells; Hemichannel expressed in HEK 293FT cells for FETCH; non-docking benchmark partner of Cx36; also called GJC1; not shown: C-terminal fluorescent protein fusion (mEmerald or RFP670 in FETCH)
Protocol: (§1) Complete FETCH methodology is outlined in Ransey et. al. 2021 (Ransey E, et al. (2021) BioRxiv). Briefly, replica multi-well plates with HEK 293FT cells were transfected with either of the two connexin proteins being evaluated for docking. Following a transfection incubation period, experimental counterparts were combined, replated, and further incubated for about 20 hr to about 24 hrs, allowing cells to make contacts and potentially generate connexosomes. Co-plated samples were trypsinized, fixed in suspension and analyzed via flow cytometry. Flow cytometry data was processed with two selection gates prior to their fluorescence evaluation. First, putative HEK cells were identified by evaluating sample forward vs. side scatter area. Next, single cells were identified as the putative cells that maintained a linear correlation of forward scatter height to forward scatter area. Finally, the dual fluorescence (mEmerald vs. RFP670) profiles of each sample was generated, and the FETCH score was defined as the proportion of dual-labeled fluorescent cells that develop in a co-plated sample.
For screening analysis, five FETCH replicates were obtained for each condition (mutation). […] To quantitatively determine whether a connexin pair docked, FETCH scores were determined for the dual fluorescence of cells under conditions where docking was not anticipated. […]

[2] = target: T5, human connexin43 (Cx43) (human, UniProt P17302 2-382); assay: heterotypic FETCH
T5 construct: whole, on cells; Hemichannel expressed in HEK 293FT cells for FETCH; also called GJA1; not shown: C-terminal fluorescent protein fusion (mEmerald or RFP670 in FETCH)
Protocol: as §1

[3] = target: the molecule itself; assay: homotypic FETCH screen
Protocol: as §1
(§2) For screening analysis, five FETCH replicates were obtained for each condition (mutation). These scores were benchmarked against scores for Cx36 and Cx45 (FETCH=1.2±0.1%, n=54 replicates). To quantitatively determine whether a connexin pair docked, FETCH scores were determined for the dual fluorescence of cells under conditions where docking was not anticipated. These conditions included pairs of connexins previously established to not show docking: (i) Cx36 and Cx45 (FETCH=0.7±0.0%, n=59 replicates), (ii) homotypic Cx23 (FETCH=0.9±0.4%, n=6 previously collected replicates (Ransey E, et al. (2021) BioRxiv), and (iii) Cx36 and Cx43 (FETCH=1.2±0.2%, n=10 previously collected replicates (Ransey E, et al. (2021) BioRxiv), and under conditions for which cells were transfected with cytoplasmic fluorophores rather than tagged connexins (FETCH=4.4±0.6%, n=17 previously collected replicates (Ransey E, et al. (2021) BioRxiv).

[4] = target: the molecule itself; assay: FETCH (flow cytometry, % dual-labelled HEK 293FT cells), homotypic
Protocol: as §1

[5] = target: B1; assay: FETCH (flow cytometry, % dual-labelled HEK 293FT cells), heterotypic
Protocol: as §1

[6] = target: T5, human connexin43 (Cx43); assay: FETCH (flow cytometry, % dual-labelled HEK 293FT cells), heterotypic, n=6
Protocol: as §1

[7] = target: T1, Cx35E224H (Morone americana Cx35 mutant …); assay: heterotypic FETCH; score higher than for the wild type Cx34.7WT/Cx35WT pair
Protocol: as §1, §2

[8] = target: T2, Cx35E224K (Morone americana Cx35 mutant …); assay: as above
Protocol: as §1, §2

[9] = target: T3, Cx35E224R (Morone americana Cx35 mutant …); assay: as above
Protocol: as §1, §2

T5 sequence (P17302 2-382): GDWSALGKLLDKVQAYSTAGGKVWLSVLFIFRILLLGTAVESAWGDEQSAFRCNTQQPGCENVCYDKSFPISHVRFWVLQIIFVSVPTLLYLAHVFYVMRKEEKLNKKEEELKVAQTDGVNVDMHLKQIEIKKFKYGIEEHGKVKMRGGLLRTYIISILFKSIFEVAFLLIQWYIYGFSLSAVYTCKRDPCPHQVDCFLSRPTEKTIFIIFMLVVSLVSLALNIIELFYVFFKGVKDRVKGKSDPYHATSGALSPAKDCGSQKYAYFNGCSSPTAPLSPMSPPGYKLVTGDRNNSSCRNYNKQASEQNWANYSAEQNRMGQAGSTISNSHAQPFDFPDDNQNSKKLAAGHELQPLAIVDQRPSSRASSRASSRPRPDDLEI
T4 sequence (P36383 whole entry, the tested form may be a part): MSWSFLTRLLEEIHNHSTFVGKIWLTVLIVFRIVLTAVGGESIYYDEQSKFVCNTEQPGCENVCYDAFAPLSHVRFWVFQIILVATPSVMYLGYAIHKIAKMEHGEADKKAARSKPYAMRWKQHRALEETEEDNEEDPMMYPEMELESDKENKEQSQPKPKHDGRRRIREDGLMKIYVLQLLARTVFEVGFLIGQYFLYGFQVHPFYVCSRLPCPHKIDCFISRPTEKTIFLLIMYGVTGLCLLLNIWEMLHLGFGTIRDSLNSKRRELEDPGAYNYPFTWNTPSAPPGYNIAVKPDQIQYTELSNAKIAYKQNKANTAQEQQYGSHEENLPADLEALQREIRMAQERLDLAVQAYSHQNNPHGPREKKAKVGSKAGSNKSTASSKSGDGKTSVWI

| binding result [1] | binding result [2] | FETCH score [5] | FETCH score [6] | binding result [7] | binding result [8] | binding result [9] | Binder | binding result [3] | FETCH score [4] |
| --- | --- | --- | --- | --- | --- | --- | --- | --- | --- |
| no binding |  |  |  |  |  |  | B1 |  |  |
|  | no binding | 22.8% | 1.3% | binds | binds | binds | Cx34.7K222Q (Morone americana Cx34.7 mutant K222Q) (other, Extracellular loop mutant of the screening library; not shown: C-terminal fluorescent protein fusion (mEmerald or RFP670 in FETCH)) MGEWTILERLLEAAVQQHSTMIGRILLTVVVIFRILIVAIVGETVYEDEQAMFICNTLQPGCNQACYDKAFPISHIRYWVFQIILVCTPSLCFITYSVHQSAKQKDRRYSFLYPIMERDYGGRDGARKLRNINGILVQHGGDGGGGKEEPDCLEVKEIPNAPRGLTHGKSSKVRRQEGISRFYIIQVVFRNALEIGFLAGQYFLYGFSVPGIFECDRYPCLQEVECYVSRPTEKTVFLVFMFAVSGICVVLNLAELNHLGWRKIKAAIRGVQARRKSICEIRKKDMAHLSQPPNLGRTQSSESAYV | no binding | 0.4% |
